Source: publication PMC7671035

Tests used:
[1] = molecular target: human CXCL11 (human) (UniProt O14625); assay: ELISA
[2] = molecular target: LY3041658 (human); assay: SPR

Chain of human CXCL11 (O14625 22-94): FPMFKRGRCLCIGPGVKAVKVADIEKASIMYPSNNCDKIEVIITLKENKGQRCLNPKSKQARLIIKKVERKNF
Chain of human CXCL11 (human) (O14625 22-94): as above
Chain of human CXCL9 (Q07325 23-125): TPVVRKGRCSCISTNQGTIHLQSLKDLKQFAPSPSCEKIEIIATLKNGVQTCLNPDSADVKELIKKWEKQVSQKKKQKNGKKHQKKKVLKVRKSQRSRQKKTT

| fold shift in EC50 compared with the ELR+CXC chemokines [1] [fold] | Kd [2] [nM] | Substance |
| --- | --- | --- |
| 200 | – | LY3041658 (antibody) |
| – | 100 | human CXCL9 (from UniProt Q07325 23-125) (ligand) |
| – | 100 | human CXCL11 (from UniProt O14625 22-94) (ligand) |
